B1: VH4 20.1 (VHH)
VHH: QVQLQESGPGLVKPSQTLSLTCTVSGGSITTYNYAWSWIRQPPGKGLEWMGVIAYDGSTYYSPSLKSRTSISRDTSKNQFSLQLSSVTPEDTAVYYCARGTVGSWYDEFPPRYDYWGQGTQVTVSS
notes: The two are tied only by the clone number; also called anti-IL6 VH4 Nanobody 20.1; VH4 Nanobody 20.1; not shown: His6 tag from vector pAX51
B2: VH4 16.1 (VHH)
VHH: QVQLQESGPGLVKPSQTLSLTCTVSGGSITTYRYYWSWIRQPPGKGLEWMGAIAYSGSTYYSPSLKSRTSISRDTTKNQFTLQLSSVTPEDTAVYYCARGRLGSWYYELNEYDYWGQGTQVTVSS
notes: The two are tied only by the clone number; Llama VH4-class Nanobody, purified by IMAC as a His6-tagged protein; also called anti-IL6 VH4 Nanobody 16.1; VH4 cl16; not shown: His6 tag from vector pAX51

Target: T1, human IL6 (human, UniProt P05231 30-212, biotinylated in the ELISA (bio-IL6); site not given)
T1 construct: In the ELISA it was biotinylated and captured on a neutravidin-coated plate; In Biacore it was on a CM5 sensor chip; also called bio-IL6; biotinylated human IL6
Experiment: SPR, Biacore 3000, human IL6 on CM5 chip, Nanobody 3.75 nM to 2 uM
Experimental: Binding of VH4 Nanobodies to different antigens was evaluated by surface plasmon resonance on a Biacore 3000 instrument. […]

Kd [nM]	koff [s⁻¹]	kon [M⁻¹ s⁻¹]	Binder
46	0.0018	40000	B1
19	0.00036	19000	B2

From patent US20090286727A1 (Ablynx, published 2009)
